Test results from paper PMC4495429 (Scientific Reports, 2015).
Where a chain is given by its changes, count along the chain named. In names and notes the source's numbering stands.

Assays:
[1] = biological target: T1, homoserine dehydrogenase (HseDH) (Pyrococcus horikoshii, UniProt O58802, K57A); experiment: crystal structure at […] Å (with NADPH); assay type: binding
T1 construct: gene PH1075; ordered residues 1-319 in each subunit (homodimer)
T1 sequence (O58802 1-319 K57A): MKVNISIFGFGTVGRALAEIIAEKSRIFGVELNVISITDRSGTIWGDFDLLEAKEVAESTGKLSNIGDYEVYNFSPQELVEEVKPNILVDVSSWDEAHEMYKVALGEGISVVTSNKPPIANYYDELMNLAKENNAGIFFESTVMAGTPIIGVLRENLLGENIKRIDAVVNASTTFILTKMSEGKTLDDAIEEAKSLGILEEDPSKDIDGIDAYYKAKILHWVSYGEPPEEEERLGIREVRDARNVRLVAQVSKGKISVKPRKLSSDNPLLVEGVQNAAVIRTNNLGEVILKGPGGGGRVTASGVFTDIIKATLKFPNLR

[2] = biological target: T2, homoserine dehydrogenase (HseDH) (Pyrococcus horikoshii, UniProt O58802, R40A); experiment: FT-ICR MS of cofactor released from purified protein; assay type: binding
T2 construct: gene PH1075; His-tagged HseDH
T2 sequence (O58802 1-319 R40A): T1 sequence (O58802 1-319 K57A) with R40A, A57K

[3] = biological target: T3, homoserine dehydrogenase (HseDH) (Pyrococcus horikoshii, UniProt O58802); experiment: crystal structure at […] Å; FT-ICR MS of released cofactor; assay type: binding; set-up: gene PH1075; ordered residues 1-319 in each subunit (homodimer)
T3 sequence (O58802 1-319): T1 sequence (O58802 1-319 K57A) with A57K

[4] = biological target: T1, homoserine dehydrogenase (HseDH); experiment: crystal structure at […] Å (with Hse); FT-ICR MS; assay type: binding
[5] = biological target: T3, homoserine dehydrogenase (HseDH); experiment: inhibition of NAD-dependent Hse oxidation, Morrison tight-binding fit; assay type: biochemical; set-up: gene PH1075; His-tagged HseDH
purified protein [6] = substrate: NC(=O)c1ccc[n+]([C@@H]2O[C@H](COP(=O)([O-])OP(=O)(O)OC[C@H]3O[C@@H](n4cnc5c(N)ncnc54)[C@H](O)[C@@H]3O)[C@@H](O)[C@H]2O)c1; experiment: purified protein; assay type: biochemical, Pyrococcus horikoshii; conditions: varied: cofactor
[7] = biological target: the molecule itself; experiment: SEC; gel filtration on Superose 6 10/300 GL, 10 mM Tris-HCl (pH 7.5) with 0.2 M NaCl; native mass against Bio-Rad gel filtration standards
purified protein [8] = substrate: NC(=O)C1=CN([C@@H]2O[C@H](COP(=O)(O)OP(=O)(O)OC[C@H]3O[C@@H](n4cnc5c(N)ncnc54)[C@H](O)[C@@H]3O)[C@@H](O)[C@H]2O)C=CC1; experiment: purified protein; conditions: varied: cofactor
purified protein [9] = substrate: N[C@@H](CCO)C(=O)O; experiment: purified protein; conditions: NAD
[10] = biological target: the molecule itself; experiment: crystal structure; sitting-drop vapor diffusion at 20 °C; wild type: 0.1 M potassium phosphate pH 6.2, 20% MPD; K57A with 1 mM Hse: 16% PEG monomethyl ether 2000, 0.1 M citrate pH 6.5; one homodimer in the asymmetric unit
purified protein [11] = substrate: NC(=O)c1ccc[n+]([C@@H]2O[C@H](COP(=O)(O)OP(=O)(O)OC[C@H]3O[C@@H](n4cnc5c(N)ncnc54)[C@H](OP(=O)(O)O)[C@@H]3O)[C@@H](O)[C@H]2O)c1; experiment: purified protein; assay type: biochemical, Pyrococcus horikoshii; conditions: varied: cofactor

N[C@@H](CCO)C(=O)O [Hse]
crystal structure at 2.43 Å (with NADPH) [1]: extra density within the active site cavity, and after construction and refinement of the peptide chain, a Hse molecule could be modeled

NC(=O)C1=CN([C@@H]2O[C@H](COP(=O)(O)OP(=O)(O)OC[C@H]3O[C@@H](n4cnc5c(N)ncnc54)[C@H](OP(=O)(O)O)[C@@H]3O)[C@@H](O)[C@H]2O)C=CC1 [NADPH]
FT-ICR MS of cofactor released from purified protein [2]: indicating that NADPH tightly bound to R40A, as in the case of the wild type enzyme | crystal structure at 2.30 Å; FT-ICR MS of released cofactor [3]: These results demonstrate that the molecule bound to P. horikoshii HseDH is NADPH. | crystal structure at 2.43 Å (with Hse); FT-ICR MS [4]: we observed a clear density corresponding to the cofactor bound within the nucleotide-binding site

NC(=O)c1ccc[n+]([C@@H]2O[C@H](COP(=O)(O)OP(=O)(O)OC[C@H]3O[C@@H](n4cnc5c(N)ncnc54)[C@H](OP(=O)(O)O)[C@@H]3O)[C@@H](O)[C@H]2O)c1 [NADP]
Ki [5]: 5.2 ± 0.1 nM

B1: Pyrococcus horikoshii homoserine dehydrogenase (HseDH), His-tagged wild type (enzyme, UniProt O58802 1-319, looked up)
chain: T1 sequence (O58802 1-319 K57A) with A57K
notes: Homoserine dehydrogenase, Pyrococcus horikoshii, open reading frame PH1075; amplified from the initiation codon to the termination codon; ordered residues 1-319 in each subunit of the crystal; calculated molecular weight 36,925; Expressed from pColdI (construct pCHseDH); the vector probably adds an N-terminal His6 tag with a factor Xa site (surmised); no tag removal is described; also called P. …
Km (purified protein [6]): 320 ± 40 µM | Vmax (purified protein [6]): 114 µmol/min/mg | kcat (purified protein [6]): 70.1 ± 4.5 s⁻¹ | kcat/Km (purified protein [6]): 219000 ± 13000 M⁻¹ s⁻¹ | stoichiometry N [7]: 2 | Km (purified protein [8]): 19 ± 10 µM | Km (purified protein [9]): 6100 ± 100 µM

B2: Pyrococcus horikoshii homoserine dehydrogenase (HseDH) K57A mutant, His-tagged (enzyme, UniProt O58802 1-319, looked up)
chain: T1 sequence (O58802 1-319 K57A)
notes: Homoserine dehydrogenase, Pyrococcus horikoshii, open reading frame PH1075, with K57A made by site-directed mutagenesis of pCHseDH; ordered residues 1-319 in each subunit of the crystal; Made from pCHseDH (pColdI); the vector probably adds an N-terminal His6 tag (surmised); Crystallized with Hse; source: E. coli BL21 (DE3) codon plus-RIPL, purified (same method as the His-tagged wild type)
binding result [10]: binds | Km (purified protein [11]): 60 ± 10 µM | Vmax (purified protein [11]): 43.3 µmol/min/mg | kcat (purified protein [11]): 26.7 ± 0.2 s⁻¹ | kcat/Km (purified protein [11]): 518000 ± 29000 M⁻¹ s⁻¹

B3: homoserine dehydrogenase (HseDH) (Pyrococcus horikoshii OT3; R40A) (protein)
chain: T1 sequence (O58802 1-319 K57A) with R40A, A57K
notes: His-tagged HseDH
Km (purified protein [11]): 40 ± 10 µM | Vmax (purified protein [11]): 5.5 µmol/min/mg | kcat (purified protein [11]): 3.4 ± 0.2 s⁻¹ | kcat/Km (purified protein [11]): 89100 ± 900 M⁻¹ s⁻¹
